Measurements from patent publication US20180334496A1 (KODIAK SCIENCES, published 2018).
Numbering of substitutions follows the chain as printed. Values joined by “and” are separate entries in the source; they are usually repeats but may differ in a detail not shown here. Equal entries are not always repeated.

B1: 34I54I59D84S / 54G101V (antibody, V domains shown)
VH: EVQLVESGGGLVQPGGSLRLSCAASGYTFTDYYINWVRQAPGKGLEWIGDINPITGDTDYNADFKRRFTFSLDTSKSTAYLQMSSLRAEDTAVYYCTREGPSFAYWGQGTLVTVSS
VL: DIQLTQSPSSLSASVGDRVTITCRSSQTIVHSNGDTYLEWYQQKPGKAPNLLIGKVSNRFSGVPSRFSGSGSGTDFTLTISSLQPEDFATYYCFQGSHVPVTFGQGTKVEIK
notes: also called 34I54I59D845 / 54G101V
B2: KCD119 TAF / KCD119 TAF (antibody, V domains shown)
VH: B1 VH with I34M, I54N, D59S, S84N
VL: B1 VL with G54Y, V101P
notes: Humanized KCD119; tested as full antibody captured on protein A; also called D19 TAF
B3: 31S34I54I59D / 54R101V (antibody, V domains shown)
VH: B1 VH with D31S, S84N
VL: DIQLTQSPSSLSASVGDRVTITCRSSQTIVHSNGDTYLEWYQQKPGKAPNLLIRKVSNRFSGVPSRFSGSGSGTDFTLTISSLQPEDFATYYCFQGSHVPVTFGQGTKVEIKR
notes: KCD119 TAF variant
B4: 34I54I59D / 54R101V (antibody, V domains shown)
VH: B1 VH with S84N
VL: B3 VL
notes: KCD119 TAF variant
B5: 31S34I54I59D84S / 54R101V (antibody, V domains shown)
VH: B1 VH with D31S
VL: B3 VL
notes: KCD119 TAF variant; also called 3I534I54I59D84S / 54R101V
B6: 31S34I54I59D84S / 54G101V (antibody, V domains shown)
VH: B1 VH with D31S
VL: B1 VL
notes: KCD119 TAF variant; full antibody captured on protein A; also called 31S34I54I59D845 / 54G101V; 3I534I54I59D84S / 54G101V
B7: 54I59D / 54R101V (antibody, V domains shown)
VH: B1 VH with I34M, S84N
VL: B3 VL
notes: KCD119 TAF variant
B8: KCD042 (antibody, V domains shown)
VH: EVQLQQSGAELVKPGASVRLSCTASGFNIKHTYIHWVSQRPEQGLEWIGKIDPANGNTKYDPKFQGKATITADTSSNTAYLQLSSLTSEDTAVYYCVNAMEYWGQGTSVTVSS
VL: QSVLTQSPAIMSASPGEKVTMTCSANSSVSDMYWFQQRPGSSPRLLIYDTSNLASGVPVRFSGSGSGTSYSLTISRMEAEDAATYYCQQWSTYPWTFGGGTKLEIK
notes: chimeric
B9: KCD040 (antibody, V domains shown)
VH: EVQLQQSGAELVKPGASVKLSCTASDFNIKDTYMHWVMQRPEQGLEWIGKIDPANGNTEFDPKFQGKATITADTSSNTAYLQLTSLTSEDTAVYYCTRAMDYWGQGTSVTVSS
VL: B8 VL with S2I, N26G, D31Y, F35Y, R38K, L45V, T92N, W95Y
notes: chimeric
B10: KCD044 (antibody, V domains shown)
VH: B8 VH with I34M, Q43R, A79V, V97L
VL: B8 VL with F35Y
notes: chimeric
B11: KCD119 (antibody, V domains shown)
VH: EVQLQQSGPELVKPGASVKISCKASGYTFTDYYTNWMRQRHGESLEWIGDINPNTGDTSYNQKFRVKATLTVDKSSGTAYMGLRSLTSEDSAVYYCTREGPSFAYWGQGTLVTVSA
VL: DVLMTQTPLSLPVSLGDQASISCRSSQTIVHSNGDTYLEWYLQKPGQSPNLLIYKVSNRFSGVPDRFSGSGSGTDFTLKISRVEAEDLGVYYCFQGSHVPPTFGGGTTLEIK
notes: chimeric; also called Mouse KCD119
B12: KCD124 (antibody, V domains shown)
VH: EVQLQQSGPELVKPGASVKISCKASGYTFTDHYMNWVKQSHGKSLEWIGDINPNNGGTSYNQKFKGKATLTVDKSSSTAYMELRSLTSGDSAVYYCTREGASFAFWGQGTLVTVSA
VL: B11 VL with T28S, N50K, P101L, G105A, T108K, I111L
notes: chimeric
B13: KCD119 TAF (antibody, V domains shown)
VH: B1 VH with I34M, I54N, D59S, S84N
VL: B1 VL with G54Y, V101P
B14: 31S34I54V59D84S/54R101V (SEQ ID NO: 184) (antibody, V domains shown)
VH: B1 VH with D31S, I54V
VL: B3 VL
B15: 34I54V59D84S/54R101V (SEQ ID NO: 184) (antibody, V domains shown)
VH: B1 VH with I54V
VL: B3 VL
B16: Mouse KCD119 (antibody, V domains shown)
VH: B11 VH
VL: B11 VL

biological target: T1, serum purified human Complement Factor D (human, UniProt P00746 26-253); assay: SPR Biacore, antibody on protein A chip, single cycle kinetics, 25 C
T1 construct: Serum purified protein flowed over the captured antibodies; also called CFD; human CFD
T1 sequence (P00746 26-253): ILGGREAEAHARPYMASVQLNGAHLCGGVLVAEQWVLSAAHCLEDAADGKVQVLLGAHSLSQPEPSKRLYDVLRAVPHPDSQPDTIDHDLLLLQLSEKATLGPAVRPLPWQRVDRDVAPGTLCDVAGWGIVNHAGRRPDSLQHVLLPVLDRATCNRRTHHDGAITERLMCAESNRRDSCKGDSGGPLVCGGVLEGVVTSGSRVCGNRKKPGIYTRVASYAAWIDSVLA
Throughout, for CFD Enzymatic activity (% of Neg Ctrl): test concentration or dose not given here.

| Kd | koff | kon | Binder |
| --- | --- | --- | --- |
| 0.00683 nM | 5.18e-05 s⁻¹ | 7.59e+06 M⁻¹ s⁻¹ | B1 |
| 0.113 nM | 0.00155 s⁻¹ | 1.38e+07 M⁻¹ s⁻¹ | B2 |
| 0.0076 nM and 0.00596 nM | 0.000106 s⁻¹ and 7.84e-05 s⁻¹ | 1.39e+07 M⁻¹ s⁻¹ and 1.32e+07 M⁻¹ s⁻¹ | B3 |
| 0.00562 nM | 0.000101 s⁻¹ | 1.8e+07 M⁻¹ s⁻¹ | B4 |
| < 0.000602 nM | < 1e-05 s⁻¹ | 1.66e+07 M⁻¹ s⁻¹ | B5 |
|  |  | 4.42e+06 M⁻¹ s⁻¹ | B6 |
| 0.00642 nM and 0.00294 nM and 0.00572 nM and 0.00523 nM | 7.04e-05 s⁻¹ and 5.95e-05 s⁻¹ and 9.8e-05 s⁻¹ and 9.5e-05 s⁻¹ | 1.1e+07 M⁻¹ s⁻¹ and 2.02e+07 M⁻¹ s⁻¹ and 1.71e+07 M⁻¹ s⁻¹ and 1.82e+07 M⁻¹ s⁻¹ | B7 |

biological target: T2, human complement factor D purified from serum (human, UniProt P00746 26-253); assay: SPR MX96
T2 construct: serum-purified (CompTech); also called hCFD-Comptech; CFD
T2 sequence (P00746 26-253): as above

| Kd | Binder |
| --- | --- |
| 1.4 nM | B8 |
| 1.9 nM | B9 |
| 2.6 nM | B10 |
| 0.37 nM and 0.86 nM | B11 |
| 4.3 nM | B12 |

biological target: T3, recombinant human CFD, His-tagged (human, UniProt P00746 26-253); assay: SPR MX96
T3 construct: also called rhCFD-His
T3 sequence (P00746 26-253 limits assumed): as the sequence (P00746 26-253) above

| Kd | Binder |
| --- | --- |
| 1 nM | B8 |
| 1.4 nM | B9 |
| 1.8 nM | B10 |
| 0.28 nM and 0.56 nM | B11 |
| 3.3 nM | B12 |

biological target: T4, recombinant human CFD mutant 1 (R157A, R207A), His-tagged (human, UniProt P00746 26-253); assay: SPR MX96
T4 construct: positions are linear positions in the mature protein; also called rhCFD-mut1-His; Mut1
T4 sequence (P00746 26-253 R182A/R232A limits assumed): as the sequence (P00746 26-253) above, with R157A, R207A counted along it

| Kd [nM] | Binder |
| --- | --- |
| 0.42 | B8 |
| 0.75 | B9 |
| 0.96 | B10 |

biological target: T5, recombinant cynomolgus CFD, His-tagged (cynomolgus); assay: SPR MX96
T5 construct: also called rcyCFD-His; recombinant Cyno-CFD

| Kd | Binder |
| --- | --- |
| 3 nM | B8 |
| 170 nM | B9 |
| 6 nM | B10 |
| 0.7 nM and 1.1 nM | B11 |
| 5.2 nM | B12 |

biological target: T1, serum purified human Complement Factor D; assay: SPR Biacore, 25 C

| Kd [nM] | koff [s⁻¹] | kon [M⁻¹ s⁻¹] | Binder |
| --- | --- | --- | --- |
| 0.00596 | 7.84e-05 | 1.32e+07 | B3 |
| 0.00562 | 0.000101 | 1.8e+07 | B4 |
| 0.00572 | 9.8e-05 | 1.71e+07 | B7 |

biological target: human Complement Factor D (serum purified) (human, UniProt P00746 26-253); assay: cell-based or functional assay
Sequence (P00746 26-253): as the sequence (P00746 26-253) above

| % no ab control, CFD enzymatic activity on Z-L-Lys-SBzl [% no ab control] | Vmax (OD/sec), CFD enzymatic activity on Z-L-Lys-SBzl [OD/sec] | Binder |
| --- | --- | --- |
| 19.6 | 0.408 | B13 |
| 28.6 | 0.596 | B14 |
| 23.3 | 0.486 | B15 |
| 15.3 | 0.318 | B16 |

biological target: T1, serum purified human Complement Factor D; assay: SPR Biacore, antibody on protein A chip, single cycle kinetics, 25 C; remark: another data set of the same source

| Kd [nM] | koff [s⁻¹] | kon [M⁻¹ s⁻¹] | Binder |
| --- | --- | --- | --- |
| 0.00683 | 5.18e-05 | 7.59e+06 | B1 |
| 0.113 | 0.00155 | 1.38e+07 | B2 |
| < 0.000602 | < 1e-05 | 1.66e+07 | B5 |
|  |  | 4.42e+06 | B6 |

biological target: T1, serum purified human Complement Factor D; assay: SPR Biacore, antibody on protein A chip, single cycle kinetics, 37 C

| Kd | koff | kon | Binder |
| --- | --- | --- | --- |
| 0.00774 nM | 0.000112 s⁻¹ | 1.45e+07 M⁻¹ s⁻¹ | B1 |
| 0.499 nM | 0.00628 s⁻¹ | 1.26e+07 M⁻¹ s⁻¹ | B2 |
| 0.00583 nM and 0.00961 nM | 0.000157 s⁻¹ and 0.000237 s⁻¹ | 2.69e+07 M⁻¹ s⁻¹ and 2.46e+07 M⁻¹ s⁻¹ | B3 |
| 0.00808 nM | 0.000264 s⁻¹ | 3.27e+07 M⁻¹ s⁻¹ | B4 |
| 0.00392 nM | 0.000137 s⁻¹ | 3.5e+07 M⁻¹ s⁻¹ | B5 |
| 0.00611 nM | 7.36e-05 s⁻¹ | 1.21e+07 M⁻¹ s⁻¹ | B6 |
| 0.0071 nM and 0.00543 nM and 0.00663 nM and 0.00792 nM | 0.000187 s⁻¹ and 0.000257 s⁻¹ and 0.000205 s⁻¹ and 0.0003 s⁻¹ | 2.64e+07 M⁻¹ s⁻¹ and 4.74e+07 M⁻¹ s⁻¹ and 3.09e+07 M⁻¹ s⁻¹ and 3.78e+07 M⁻¹ s⁻¹ | B7 |

biological target: T2, human complement factor D purified from …; assay: not given

| Kd [nM] | Binder |
| --- | --- |
| 0.0358 | B11 |
| 0.78 | B12 |

biological target: T2, human complement factor D purified from …; assay: not given; remark: another data set of the same source

| Kd [nM] | Binder |
| --- | --- |
| 1.09 | B8 |
| 79.1 | B9 |
| 1.02 | B10 |

biological target: T1, serum purified human Complement Factor D; assay: SPR Biacore, antibody on protein A chip, single cycle kinetics, 37 C; remark: another data set of the same source

| Kd [nM] | koff [s⁻¹] | kon [M⁻¹ s⁻¹] | Binder |
| --- | --- | --- | --- |
| 0.00774 | 0.000112 | 1.45e+07 | B1 |
| 0.499 | 0.00628 | 1.26e+07 | B2 |
| 0.00392 | 0.000137 | 3.5e+07 | B5 |
| 0.00611 | 7.36e-05 | 1.21e+07 | B6 |

biological target: T4, recombinant human CFD mutant 1 (R157A, …); assay: ELISA

| Mut1 Binding (% wt) | Binder |
| --- | --- |
| 65.6 | B8 |
| 62.2 | B9 |
| 62.5 | B10 |

biological target: T1, serum purified human Complement Factor D; assay: SPR Biacore, 37 C

| Kd [nM] | koff [s⁻¹] | kon [M⁻¹ s⁻¹] | Binder |
| --- | --- | --- | --- |
| 0.00961 | 0.000237 | 2.46e+07 | B3 |
| 0.00808 | 0.000264 | 3.27e+07 | B4 |
| 0.00663 | 0.000205 | 3.09e+07 | B7 |

biological target: T4, recombinant human CFD mutant 1 (R157A, …); assay: ELISA; remark: another data set of the same source

| Mut1 Binding (% wt) | Binder |
| --- | --- |
| -0.643 | B12 |

biological target: T2, human complement factor D purified from …; assay: cell-based or functional assay

| CFD Enzymatic activity (% of Neg Ctrl) | Binder |
| --- | --- |
| 6.8 % of Neg Ctrl | B8 |
| 13.7 % of Neg Ctrl | B9 |
| 8.8 % of Neg Ctrl | B10 |

biological target: T2, human complement factor D purified from …; assay: cell-based or functional assay; remark: another data set of the same source

| CFD Enzymatic activity (% of Neg Ctrl) | Binder |
| --- | --- |
| 15.7 % of Neg Ctrl | B11 |
| 19.7 % of Neg Ctrl | B12 |
